According to the supplement of paper PMC5998384:

Columns and labels:
HeLa Kyoto [1] = assay: melting temperature (median over replicates), in situ; higher = more thermally stable
HeLa Kyoto [2] = assay: thermal stability score vs G1/S (z-score of summed log2 fold changes over temperatures); higher = more thermally stable than in G1/S
HeLa Kyoto [3] = assay: solubility change mitosis vs G1/S (difference of NP-40 vs SDS log2 ratios) (log2 ratio difference); higher = more soluble in mitosis
HeLa Kyoto [4] = assay: solubility in G1/S (NP-40 vs SDS abundance) (log2 ratio); higher = more soluble; conditions: cell cycle stage: G1/S
[5] = cell cycle stage: early G1 (4.5 h after nocodazole release)
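For melting temperature (median over replicates), in situ in this document: HeLa Kyoto cells synchronized by double thymidine or nocodazole block, proteins quantified by TMT10plex mass spectrometry, three independent biological replicates.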
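For solubility change mitosis vs G1/S (difference of NP-40 vs SDS log2 ratios) in this document: synchronized HeLa Kyoto cells (double thymidine block for G1/S, nocodazole release for mitosis), protein amounts in NP-40 versus SDS lysates quantified by mass spectrometry, three biological replicates.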
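For solubility in G1/S (NP-40 vs SDS abundance) in this document: HeLa Kyoto cells arrested at G1/S by double thymidine block, proteins quantified by TMT10plex mass spectrometry in mild NP-40 versus SDS extracts, three biological replicates.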
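For thermal stability score vs G1/S (z-score of summed log2 fold changes over temperatures) in this document: synchronized HeLa Kyoto cells, proteins quantified by TMT10plex mass spectrometry, three biological replicates, mitosis taken 0.5 h after nocodazole release, G1/S directly after double thymidine block.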

Sequence	melting temperature (HeLa Kyoto [1]; cell cycle stage: G1/S) [°C]	melting temperature (HeLa Kyoto [1]; cell cycle stage: mitosis) [°C]	thermal stability score (HeLa Kyoto [2]; [5])	thermal stability score (HeLa Kyoto [2]; cell cycle stage: mitosis)	solubility change mitosis (log2) (HeLa Kyoto [3])	solubility in G1/S (log2) (HeLa Kyoto [4])
MRRFLRPGHDPVRERLKRDLFQFNKTVEHGFPHQPSALGYSPSLRILAIGTRSGAIKLYGAPGVEFMGLHQENNAVTQIHLLPGQCQLVTLLDDNSLHLWSLKVKGGASELQEDESFTLRGPPGAAPSATQITVVLPHSSCELLYLGTESGNVFVVQLPAFRALEDRTISSDAVLQRLPEEARHRRVFEMVEALQEHPRDPNQILIGYSRGLVVIWDLQGSRVLYHFLSSQQLENIWWQRDGRLLVSCHSDGSYCQWPVSSEAQQPEPLRSLVPYGPFPCKAITRILWLTTRQGLPFTIFQGGMPRASYGDRHCISVIHDGQQTAFDFTSRVIGFTVLTEADPAATFDDPYALVVLAEEELVVIDLQTAGWPPVQLPYLASLHCSAITCSHHVSNIPLKLWERIIAAGSRQNAHFSTMEWPIDGGTSLTPAPPQRDLLLTGHEDGTVRFWDASGVCLRLLYKLSTVRVFLTDTDPNENFSAQGEDEWPPLRKVGSFDPYSDDPRLGIQKIFLCKYSGYLAVAGTAGQVLVLELNDEAAEQAVEQVEADLLQDQEGYRWKGHERLAARSGPVRFEPGFQPFVLVQCQPPAVVTSLALHSEWRLVAFGTSHGFGLFDHQQRRQVFVKCTLHPSDQLALEGPLSRVKSLKKSLRQSFRRMRRSRVSSRKRHPAGPPGEAQEGSAKAERPGLQNMELAPVQRKIEARSAEDSFTGFVRTLYFADTYLKDSSRHCPSLWAGTNGGTIYAFSLRVPPAERRMDEPVRAEQAKEIQLMHRAPVVGILVLDGHSVPLPEPLEVAHDLSKSPDMQGSHQLLVVSEEQFKVFTLPKVSAKLKLKLTALEGSRVRRVSVAHFGSRRAEDYGEHHLAVLTNLGDIQVVSLPLLKPQVRYSCIRREDVSGIASCVFTKYGQGFYLISPSEFERFSLSTKWLVEPRCLVDSAETKNHRPGNGAGPKKAPSRARNSGTQSDGEEKQPGLVMERALLSDERVLKEIQSTLEGDRGSGNWRSHRAAVGCSLSNGGAE [LLGL2]	51.1	51.5	-1.83	-2.52	-0.0143	-0.27
MRRLGPFHPRVHWAAPPSLSSGLHRLLFLRGTRIPSSTTLSPPRHDSLSLDGGTVNPPRVREPTGREAFGPSPASSDWLPARWRNGRGGRPRARLCSGWTAAEEARRNPTLGGLLGRQRLLLRMGGGRLGAPMERHGRASATSVSSAGEQAAGDPEGRRQEPLRRRASSASVPAVGASAEGTRRDRLGSYSGPTSVSRQRVESLRKKRPLFPWFGLDIGGTLVKLVYFEPKDITAEEEEEEVESLKSIRKYLTSNVAYGSTGIRDVHLELKDLTLCGRKGNLHFIRFPTHDMPAFIQMGRDKNFSSLHTVFCATGGGAYKFEQDFLTIGDLQLCKLDELDCLIKGILYIDSVGFNGRSQCYYFENPADSEKCQKLPFDLKNPYPLLLVNIGSGVSILAVYSKDNYKRVTGTSLGGGTFFGLCCLLTGCTTFEEALEMASRGDSTKVDKLVRDIYGGDYERFGLPGWAVASSFGNMMSKEKREAVSKEDLARATLITITNNIGSIARMCALNENINQVVFVGNFLRINTIAMRLLAYALDYWSKGQLKALFSEHEGYFGAVGALLELLKIP [PANK2]	53.1	55.1	0.0148	0.653	-0.196	0.04
MRRVTLFLNGSPKNGKVVAVYGTLSDLLSVASSKLGIKATSVYNGKGGLIDDIALIRDDDVLFVCEGEPFIDPQTDSKPPEGLLGFHTDWLTLNVGGRYFTTTRSTLVNKEPDSMLAHMFKDKGVWGNKQDHRGAFLIDRSPEYFEPILNYLRHGQLIVNDGINLLGVLEEARFFGIDSLIEHLEVAIKNSQPPEDHSPISRKEFVRFLLATPTKSELRCQGLNFSGADLSRLDLRYINFKMANLSRCNLAHANLCCANLERADLSGSVLDCANLQGVKMLCSNAEGASLKLCNFEDPSGLKANLEGANLKGVDMEGSQMTGINLRVATLKNAKLKNCNLRGATLAGTDLENCDLSGCDLQEANLRGSNVKGAIFEEMLTPLHMSQSVR [KCTD9]	52.3	51	-0.393	-1.4	-0.2	0.0627
MRSLLLLSAFCLLEAALAAEVKKPAAAAAPGTAEKLSPKAATLAERSAGLAFSLYQAMAKDQAVENILVSPVVVASSLGLVSLGGKATTASQAKAVLSAEQLRDEEVHAGLGELLRSLSNSTARNVTWKLGSRLYGPSSVSFADDFVRSSKQHYNCEHSKINFRDKRSALQSINEWAAQTTDGKLPEVTKDVERTDGALLVNAMFFKPHWDEKFHHKMVDNRGFMVTRSYTVGVMMMHRTGLYNYYDDEKEKLQIVEMPLAHKLSSLIILMPHHVEPLERLEKLLTKEQLKIWMGKMQKKAVAISLPKGVVEVTHDLQKHLAGLGLTEAIDKNKADLSRMSGKKDLYLASVFHATAFELDTDGNPFDQDIYGREELRSPKLFYADHPFIFLVRDTQSGSLLFIGRLVRPKGDKMRDEL [SERPINH1]	54.2	55.2	4.47	4.77	-0.0819	0.232
MRSRSNSGVRLDGYARLVQQTILCYQNPVTGLLSASHEQKDAWVRDNIYSILAVWGLGMAYRKNADRDEDKAKAYELEQNVVKLMRGLLQCMMRQVAKVEKFKHTQSTKDSLHAKYNTATCGTVVGDDQWGHLQVDATSLFLLFLAQMTASGLRIIFTLDEVAFIQNLVFYIEAAYKVADYGMWERGDKTNQGIPELNASSVGMAKAALEAIDELDLFGAHGGRKSVIHVLPDEVEHCQSILFSMLPRASTSKEIDAGLLSIISFPAFAVEDVNLVNVTKNEIISKLQGRYGCCRFLRDGYKTPREDPNRLHYDPAELKLFENIECEWPVFWTYFIIDGVFSGDAVQVQEYREALEGILIRGKNGIRLVPELYAVPPNKVDEEYKNPHTVDRVPMGKVPHLWGQSLYILSSLLAEGFLAAGEIDPLNRRFSTSVKPDVVVQVTVLAENNHIKDLLRKHGVNVQSIADIHPIQVQPGRILSHIYAKLGRNKNMNLSGRPYRHIGVLGTSKLYVIRNQIFTFTPQFTDQHHFYLALDNEMIVEMLRIELAYLCTCWRMTGRPTLTFPISRTMLTNDGSDIHSAVLSTIRKLEDGYFGGARVKLGNLSEFLTTSFYTYLTFLDPDCDEKLFDNASEGTFSPDSDSDLVGYLEDTCNQESQDELDHYINHLLQSTSLRSYLPPLCKNTEDRHVFSAIHSTRDILSVMAKAKGLEVPFVPMTLPTKVLSAHRKSLNLVDSPQPLLEKVPESDFQWPRDDHGDVDCEKLVEQLKDCSNLQDQADILYILYVIKGPSWDTNLSGQHGVTVQNLLGELYGKAGLNQEWGLIRYISGLLRKKVEVLAEACTDLLSHQKQLTVGLPPEPREKIISAPLPPEELTKLIYEASGQDISIAVLTQEIVVYLAMYVRAQPSLFVEMLRLRIGLIIQVMATELARSLNCSGEEASESLMNLSPFDMKNLLHHILSGKEFGVERSVRPIHSSTSSPTISIHEVGHTGVTKTERSGINRLRSEMKQMTRRFSADEQFFSVGQAASSSAHSSKSARSSTPSSPTGTSSSDSGGHHIGWGERQGQWLRRRRLDGAINRVPVGFYQRVWKILQKCHGLSIDGYVLPSSTTREMTPHEIKFAVHVESVLNRVPQPEYRQLLVEAIMVLTLLSDTEMTSIGGIIHVDQIVQMASQLFLQDQVSIGAMDTLEKDQATGICHFFYDSAPSGAYGTMTYLTRAVASYLQELLPNSGCQMQ [PHKA2]	52.6	51.7	0.315	-0.217	-0.229	0.00161
MRVAVAGCCHGELDKIYETLALAERRGPGPVDLLLCCGDFQAVRNEADLRCMAVPPKYRHMQTFYRYYSGEKKAPVLTLFIGGNHEASNHLQELPYGGWVAPNIYYLGLAGVVKYRGVRIGGISGIFKSHDYRKGHFECPPYNSSTIRSIYHVRNIEVYKLKQLKQPIDIFLSHDWPRSIYHYGNKKQLLKTKSFFRQEVENNTLGSPAASELLEHLKPTYWFSAHLHVKFAALMQHQAKDKGQTARATKFLALDKCLPHRDFLQILEIEHDPSAPDYLEYDIEWLTILRATDDLINVTGRLWNMPENNGLHARWDYSATEEGMKEVLEKLNHDLKVPCNFSVTAACYDPSKPQTQMQLIHRINPQTTEFCAQLGIIDINVRLQKSKEEHHVCGEYEEQDDVESNDSGEDQSEYNTDTSALSSINPDEIMLDEEEDEDSIVSAHSGMNTPSVEPSDQASEFSASFSDVRILPGSMIVSSDDTVDSTIDREGKPGGTVESGNGEDLTKVPLKRLSDEHEPEQRKKIKRRNQAIYAAVDDDDDDAA [DBR1]	54	55.1	1.33	3.28	-0.212	-0.0568
MRVESGSAQERGILLESLSTLLEKTTASHEGRAPGNRELTDLLPPEVCSLLNPAAIYANNEISLRDVEVYGFDYDYTLAQYADALHPEIFSTARDILIEHYKYPEGIRKYDYNPSFAIRGLHYDIQKSLLMKIDAFHYVQLGTAYRGLQPVPDEEVIELYGGTQHIPLYQMSGFYGKGPSIKQFMDIFSLPEMALLSCVVDYFLGHSLEFDQAHLYKDVTDAIRDVHVKGLMYQWIEQDMEKYILRGDETFAVLSRLVAHGKQLFLITNSPFSFVDKGMRHMVGPDWRQLFDVVIVQADKPSFFTDRRKPFRKLDEKGSLQWDRITRLEKGKIYRQGNLFDFLRLTEWRGPRVLYFGDHLYSDLADLMLRHGWRTGAIIPELEREIRIINTEQYMHSLTWQQALTGLLERMQTYQDAESRQVLAAWMKERQELRCITKALFNAQFGSIFRTFHNPTYFSRRLVRFSDLYMASLSCLLNYRVDFTFYPRRTPLQHEAPLWMDQLCTGCMKTPFLGDMAHIR [NT5DC2]	53.1	52.6	-0.133	0.934	-0.0879	-0.284
MRWILFIGALIGSSICGQEKFFGDQVLRINVRNGDEISKLSQLVNSNNLKLNFWKSPSSFNRPVDVLVPSVSLQAFKSFLRSQGLEYAVTIEDLQALLDNEDDEMQHNEGQERSSNNFNYGAYHSLEAIYHEMDNIAADFPDLARRVKIGHSFENRPMYVLKFSTGKGVRRPAVWLNAGIHSREWISQATAIWTARKIVSDYQRDPAITSILEKMDIFLLPVANPDGYVYTQTQNRLWRKTRSRNPGSSCIGADPNRNWNASFAGKGASDNPCSEVYHGPHANSEVEVKSVVDFIQKHGNFKGFIDLHSYSQLLMYPYGYSVKKAPDAEELDKVARLAAKALASVSGTEYQVGPTCTTVYPASGSSIDWAYDNGIKFAFTFELRDTGTYGFLLPANQIIPTAEETWLGLKTIMEHVRDNLY [CPA4]	57.4	58.7	1.94	1.93	0.0829	0.184
MSADAAAGAPLPRLCCLEKGPNGYGFHLHGEKGKLGQYIRLVEPGSPAEKAGLLAGDRLVEVNGENVEKETHQQVVSRIRAALNAVRLLVVDPETDEQLQKLGVQVREELLRAQEAPGQAEPPAAAEVQGAGNENEPREADKSHPEQRELRPRLCTMKKGPSGYGFNLHSDKSKPGQFIRSVDPDSPAEASGLRAQDRIVEVNGVCMEGKQHGDVVSAIRAGGDETKLLVVDRETDEFFKKCRVIPSQEHLNGPLPVPFTNGEIQKENSREALAEAALESPRPALVRSASSDTSEELNSQDSPPKQDSTAPSSTSSSDPILDFNISLAMAKERAHQKRSSKRAPQMDWSKKNELFSNL [SLC9A3R1]	56.5	57.1	-1.17	-0.944	-0.0214	0.536
MSADGAEADGSTQVTVEEPVQQPSVVDRVASMPLISSTCDMVSAAYASTKESYPHIKTVCDAAEKGVRTLTAAAVSGAQPILSKLEPQIASASEYAHRGLDKLEENLPILQQPTEKVLADTKELVSSKVSGAQEMVSSAKDTVATQLSEAVDATRGAVQSGVDKTKSVVTGGVQSVMGSRLGQMVLSGVDTVLGKSEEWADNHLPLTDAELARIATSLDGFDVASVQQQRQEQSYFVRLGSLSERLRQHAYEHSLGKLRATKQRAQEALLQLSQVLSLMETVKQGVDQKLVEGQEKLHQMWLSWNQKQLQGPEKEPPKPEQVESRALTMFRDIAQQLQATCTSLGSSIQGLPTNVKDQVQQARRQVEDLQATFSSIHSFQDLSSSILAQSRERVASAREALDHMVEYVAQNTPVTWLVGPFAPGITEKAPEEKK [PLIN3]	56.7	57.3	-0.144	0.126	0.0467	0.715
